Measured values: the supplement of paper PMC12042874
± gives the uncertainty stated by the source.

Assay: amyloid nucleation score (Sup35N fusion, yeast selection) (log enrichment); library NNK2; higher = more nucleation; inactive = no reads after selection
In short: (§1)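 Peptides of 20 random codons fused to Sup35N were expressed in psi-negative yeast, induced 24 hours with 100 μM copper sulfate, then grown 7 days at 30°C on medium lacking adenine and uracil. Input and output plasmid inserts were Illumina-sequenced. Nucleation score is the DiMSum log enrichment of output over input reads, centred on the mode score of non-aggregating sequences, excluding sequences with under 100 input reads. Random libraries had three technical output replicates.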

Substance | amyloid nucleation score
MLNARELGETNKMLIVWVYL | 0.441 ± 0.22
FKFVYNVKCPYWWTLSFMEV | 0.75 ± 0.47
SLNNIRLLTHYLDFGVRNLA | 3.04 ± 0.092
VRDVKLLPKMVGSNIIGSVL | inactive
VLIFMIKVWARITLMGYSRL | -0.666 ± 0.3
LLFSG | 1.62 ± 0.32
LKQLKISRRADNYVTQCNLV | 2.91 ± 0.11
NGRIICNESMSLYKSEV | 0.842 ± 0.8
KAVCGCLLLGFVNFLYPVEV | -0.495 ± 0.21
WICFYDYWQGFSHNDCREME | -0.97 ± 0.36
HSMSKDLGWFHPNVNRFGFF | inactive
AWGYDKAVIFGAVDLQHVGT | 0.062 ± 0.79
GFNSNGTFHFSQSVT | -0.001 ± 0.65
LIRSFNSSYVEGRHANI | 2.69 ± 0.14
IKTYNGGSWGALSCIALRLI | -1.39 ± 0.78
LCGSRKRCGEMLRRKLGKYV | 0.602 ± 0.81
PISWGRLFNMVPR | -0.98 ± 0.55
AGSSS | -0.561 ± 0.63
DYVTVVGIILVLLLLNFNLG | inactive
HSLRGTWMGMVSASCTPVDM | 4.27 ± 0.057
MMRVTIPGVVLSCWPFGSTR | 3.09 ± 0.11

Substance | amyloid nucleation score
LMFARTMRSVRRFFYVGFHH | inactive
LYHEDRSVISRLVSSRLKCK | 0.389 ± 0.38
FGCPIVPVISIGFPLYGVYY | 1.1 ± 0.3
LLNVIVVRIK | 5.313 ± 0.03
MKCWASPGWTQIQMEPKEGS | 0.064 ± 0.26
VFWITAQMYY | 2.18 ± 0.076
VFGWS | 0.745 ± 0.22
EMSPSLMELFHACVVLVRFG | -0.051 ± 0.37
NNDYFTEGAGKGVTLIGALG | 4.443 ± 0.041
WYSYRL | -0.11 ± 0.46
QELIDIGTNSFVDCCS | inactive
VAIGLLVEGGFFIHRNICLW | -1.36 ± 0.62
ISCNKIIDIKMWGWVCAIA | 8.729 ± 0.035
STPPLILQSYV | -1.17 ± 0.75
DSSCFIIRLHSEFMLGSRSF | -0.715 ± 0.79
YRILSNASWTFAVVQSCNPY | 5.789 ± 0.047
RFRWTSVSRVKGCFNKMYPS | 0.1 ± 0.3
FQNITVYSFRATGVTGQRSC | -0.447 ± 0.5
ILDRYLVHGI | -0.394 ± 0.78
SITAIYESLNRRRNLKFKYC | inactive
GTDSL | -0.226 ± 1.1

Substance | amyloid nucleation score
VWSSLGRECPSSCIVFLSVE | -0.464 ± 0.78
ICACKSY | 5.28 ± 0.076
ENIYRRLLVLELLVWSCRGK | 0.569 ± 0.34
GGSMSGFLSCGMI | -1.02 ± 0.22
FEGNGCSILWLSFCRWAQ | 0.98 ± 0.4
TAGWIFEWTFGPVYVFNSPW | 8.016 ± 0.061
DSVFVFGSHLFLQNSVRGRT | -0.295 ± 0.24
FAPSSIDFYRGSKNGLFTAQ | -0.302 ± 0.4
QPGSLMGNRPKESVRASRAR | -0.104 ± 0.45
NRADGDKFSSSPSPTWKYME | -0.081 ± 1.1
LTVLFVLTVCFNVAMGCCLS | -0.223 ± 0.76
WSYGLLWPSVKLIPACPPAS | 0.244 ± 0.42
SYTSGYLLVYPFVNIVVFYP | -1.64 ± 1.1
KFYVCCATCGCDKINELPVT | 8.088 ± 0.06
ANKSAGVLYNAASDLRVGVR | 0.923 ± 0.55
LCDGAMRMCGWMKLGVQLGV | 2.82 ± 0.15
ILMCETLWNWLKWIPKFNSC | -0.403 ± 0.5
LNGLLTIRADVASKSIRLMH | 0.004 ± 0.51
MTGSTSKMGRCFWQFICSGL | inactive
GKCTGRPPMNHSSLL | 0.832 ± 0.39
IREYHMFDGHMRDRCFGQVK | -0.048 ± 0.65

Substance | amyloid nucleation score
HFFSSSSMRMYTSYSPLVMW | 0.215 ± 0.42
RLIRFSIMEV | -0.291 ± 0.54
TFPNLHFCFTLLLYKGCVCG | -0.101 ± 1.1
SFNRS | 0.87 ± 0.31
FVVQFMGADHAFKERFGGH | 1.87 ± 0.2
RGVYKHSPHLIT | -0.127 ± 1.1
TNMPRWECSHGGRECGKGPA | 1.19 ± 0.18
QCGWDFLFIVMCKFVQRRCS | 0.35 ± 0.8
GGWRVSGNTSRSISRPCWRG | 0.483 ± 0.27
VNFYSALSSDNTRMYWLLTV | -0.898 ± 1.1
NELNLDKPSDLPLS | 0.844 ± 0.31
AWGGSRNRMYFYHSPVRFFE | 4.5 ± 0.088
DSSLNIGVLPIVTNGLTKCD | -0.29 ± 0.28
ADFTWVKSHVCHMEWSR | 0.551 ± 0.42
YWANGSDEDSVGGNIDAVGD | -1.07 ± 0.55
LLGVFTETKGNP | 2.53 ± 0.11
FFRGSYTRAWH | 0.967 ± 0.29
LNTSFLMV | -1.05 ± 0.49
YIGQVGYRCSAVGQSYSRPG | 1.87 ± 0.47
TDCIWFHYLVTLWFLIRRCP | 0.741 ± 0.66

Assay: amyloid nucleation score (Sup35N fusion, yeast selection) (log enrichment); library NNK3; higher = more nucleation; inactive = no reads after selection
In short: as §1

Substance | amyloid nucleation score
IIFIF | 1.3 ± 0.14
SLMTVRVNHK | 0.621 ± 0.2
SVRGITQLSSTLHVRLVITS | inactive
VTSGLERTMFSGNKRRIEVS | inactive
TWSMNIIMCLNRQVDQGFSL | 1.82 ± 0.075
RFYTSCVCHHLLIYYLIGSS | inactive
KPRILFQCPIRKVLRVGVKF | inactive
ARSDHYYAVIGDVRMNILPI | inactive
TLSCTKVTP | inactive
GLFYMMLLTRMGRYRGERNG | 1.18 ± 0.1
IVSNTTPTQPTSVLVNYSVR | inactive
YKNSGFNLFNRVGNWMGVKL | inactive
DCFNNWWVTHYQQINFPTVA | inactive
VVDILFKMHEVDSVI | inactive
LSDGSHLSECYGFT | inactive
DMFVECRLISFNFTFIRVLI | inactive
AVRCPLNMHLRGRAVVQYKG | inactive
AAVHWSTIYYSLGMVKDEGG | inactive
FFSSFPFKIIEMLSFEGSFR | inactive
NLEEHIRCFKGDRDPYLFF | inactive
CVMNRN | inactive
IIADKVQSLISFDNVGMCQW | inactive
IVSMDQESTLQWNVPGYVLL | inactive
NRRIMVSSFRKVFLSGYGWF | inactive
YSQFCYIVHLVIGMVDSRRC | inactive
FYKAFIL | inactive
IFLYNVLIGLCLDNPYKLFG | inactive

Substance | amyloid nucleation score
TVSGNKYISDRVQN | inactive
TNQALTMNCHPG | inactive
LLGCAYTGSTFHGNVGSFVL | inactive
KRDIVFLCGDWVDSFTCSGG | 1.79 ± 0.075
RSVVLNRADMECKQELVNLN | inactive
LQSRF | inactive
VLGDSNFF | inactive
KCLLV | inactive
CFDTSLSVPGPMCYWKTKHG | inactive
KEADDCVREAKFGAEFVTLR | inactive
NNFRVNVHIIALVPECYFRL | 2.44 ± 0.077
ISWYVWRVMYMSCGWSIVFR | inactive
FDSYRVYM | inactive
KPSRNESLQMALLSYIYLFR | inactive
VTTIVYDSYCPLPRCWTWVG | inactive
SHVWPLLMYHGGIVWSKS | inactive
SSCRTRC | -0.405 ± 0.76
YFGLALKSFGTLM | 0.876 ± 0.19
VVWQTHQVHMVMYERVCTWD | inactive
LDCTHSTLFWWRRFVSAYSL | inactive
IYSIKSV | -0.357 ± 0.68
DKSSSFLVRGLLLHTSRATQ | inactive
YMGCIYIPYVKFYFKM | 1.26 ± 0.081
KWTSCSYPH | inactive
FLPPTVINVVHAYRRFSSDR | 1.71 ± 0.098
SEVWKWMPDKCVSDGYVFDI | inactive
KDVSMLSTVTRTPRMRRVST | inactive

Substance | amyloid nucleation score
AVSFLWHTYVLGGLLKLFGG | inactive
HLTHFQQILRFNKAETCVRT | inactive
RVIATRDDCPFLGW | inactive
YSLAELMCMKEHLPMRNGCF | 0.774 ± 0.14
EAARTDLSILFISWMLLGKR | inactive
SVILNLMRRWPRKHEVKDAC | inactive
HKFDNKIRPTWYVVLPIFNA | inactive
LLAMRRIDWCSTPVTLILCR | inactive
FMMFIL | 1.42 ± 0.1
AVFTCCCPRK | inactive
SSVRRYHKLIKRRDYVAFNV | inactive
QFVAFVYYVCLLWYTGALLI | inactive
SLLWCKANPKRF | inactive
STSFNIRIFMYKFAYF | 1.31 ± 0.095
NMRCSIHARGSRHGVRDDTQ | inactive
SYEHFRWLYHVFKVARFFFL | inactive
FNWTN | inactive
FVTSVQVRFNMGFFAELFAV | inactive
NMTTGYGAMGFRVVEAWFGC | 1.13 ± 0.11
VRFVLDRIACLVGVYIYFWG | inactive
YLWEYSEMLSTDI | inactive
SRFQWLWKMCSNDG | inactive
YFSLWVLSYFLEAPLSLRNN | inactive
FESLHSCV | inactive
SIGWSLCENRRQPGSRWSLP | inactive
